Laboratory results published in the supplement of paper PMC7877785.
± gives the uncertainty stated by the source.

Test: self-splicing fitness, log relative to wild type (ln ratio); higher = more splicing; Tetrahymena group I intron in knt gene, E. coli kanamycin selection, DiMSum; sequences stand for … in CUCUCU…GGAGGGAAAAGUUAUCAGGCAUGCACCUGGUAGCUAGUCUUUAAACCAAUAGAUUGCAUCGGUUUAAAAGGCAAGACCGUCAAAUUGCGGGAAAGGGGUCAACAGCCGUUCAGUACCAAGUCUCAGGGGAAACUUUGAGAUGGCCUUGCAAAGGGUAUGGUAAUAAGCUGACGGACAUGGUCCUAACCACGCAGCCAAGUCCUAAGUCAACAGAUCUUCUGUUGAUAUGGAUGCAGUUCACAGACUAAAUGUCGGUCGGGGAAGAUGUAUUCUUCUCAUAAGAUAUAGUCGGACCUCUCCUUAAUGGGAGCUAGCGGAUGAAGUGAUGCAACACUGGAGCCGCUGGGAACUAAUUUGUAUGCGAAAGUAUAUUGAUUAGUUUUGGAGUACUCGUGGUCG
Method in brief: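 The eight P1ex-region nucleotides of an intron in the knt kanamycin-resistance gene on pET-22b(+) were all randomised and the library put into E. coli BL21(DE3). Six replicate transformations were grown overnight at 37°C or 30°C on LB agar with or without 25 μg/mL kanamycin, together with 100 μg/mL carbenicillin, 50 μM IPTG and 0.2% rhamnose. Colonies were pooled and amplicon-sequenced on an Illumina HiSeq 2500. Fitness from DiMSum is the error-weighted combination of wild-type-normalised replicate fold changes, kanamycin over none.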

Sequence	self-splicing fitness (ln) (30 °C)	self-splicing fitness (ln) (37 °C)
GUUUAGCAAUAUUACGUUAA	-1.87 ± 0.33	-1.68 ± 0.24
GAUUAGCAAUAUUACGAAUC	-4.13 ± 0.37	-1.82 ± 0.31
GUUUAGCAAUAUUACGUGUU	-2.4 ± 0.13	-2.35 ± 0.14
UGAGAGCAAUAUUACGCAAU		-3 ± 0.43
GACCAGCAAUAUUACGGUUA	-0.367 ± 0.046	-0.221 ± 0.056
ACGGAGCAAUAUUACGGGAC	-2.93 ± 0.39	-2.69 ± 0.36
UCCAAGCAAUAUUACGCAGC	-2.73 ± 0.21	-2.89 ± 0.32
AGUCAGCAAUAUUACGCCUU	-0.221 ± 0.11	0.301 ± 0.13
UUGAAGCAAUAUUACGGGUU	-1.66 ± 0.093	-1.66 ± 0.16
AACGAGCAAUAUUACGAUGA	-3.91 ± 0.46	-2.08 ± 0.22
UUACAGCAAUAUUACGCAUC	-3.36 ± 0.15	-1.6 ± 0.13
UCAUAGCAAUAUUACGUCCA	-1.07 ± 0.16	-0.442 ± 0.17
UUUAAGCAAUAUUACGGGAC	-1.77 ± 0.16	-2 ± 0.42
UAGAAGCAAUAUUACGUACA	-0.549 ± 0.14	0.208 ± 0.16
UUGAAGCAAUAUUACGAGAC	-3.37 ± 0.17	-2.5 ± 0.19
UAUGAGCAAUAUUACGAACU		-1.57 ± 0.26
CCCCAGCAAUAUUACGUUUU	-4.12 ± 0.14	-2.55 ± 0.11
GUGUAGCAAUAUUACGCCUG	-3.94 ± 0.25	-0.863 ± 0.13
AAAAAGCAAUAUUACGUUGU	-3.71 ± 0.15	-2.01 ± 0.14
GCAUAGCAAUAUUACGCUCG	-0.827 ± 0.11	-0.165 ± 0.13
UUAAAGCAAUAUUACGUUCU	-1.08 ± 0.091	-0.401 ± 0.12
CUUAAGCAAUAUUACGGAUG	-0.76 ± 0.056	-0.0373 ± 0.077
CCGCAGCAAUAUUACGUUAU	-3.43 ± 0.17	-2.77 ± 0.19
UCUAAGCAAUAUUACGGGCG	-1.54 ± 0.11	-0.979 ± 0.095
UCCCAGCAAUAUUACGUUCU	-3.47 ± 0.21	-2.5 ± 0.22

Sequence	self-splicing fitness (ln) (30 °C)	self-splicing fitness (ln) (37 °C)
AACUAGCAAUAUUACGGUGU	-1.77 ± 0.083	-0.956 ± 0.099
GUACAGCAAUAUUACGGCGU	-0.577 ± 0.069	0.482 ± 0.085
UAGGAGCAAUAUUACGUACA	-2.47 ± 0.22	-0.906 ± 0.18
UUCAAGCAAUAUUACGAUCC	-2.66 ± 0.27	-1.55 ± 0.29
AACAAGCAAUAUUACGUGGU	-3.38 ± 0.12	-1.57 ± 0.1
AGUAAGCAAUAUUACGACGC	-0.403 ± 0.15	0.541 ± 0.17
AAAGAGCAAUAUUACGUGAC	-4.21 ± 0.21	-2.62 ± 0.2
AACGAGCAAUAUUACGCGAU	-3.04 ± 0.26	-1.99 ± 0.3
ACGUAGCAAUAUUACGUAUC	-3.45 ± 0.24	-2.89 ± 0.26
CUGGAGCAAUAUUACGCAUA		-2.22 ± 0.37
UGAAAGCAAUAUUACGGAAU	-3.12 ± 0.18	-0.0346 ± 0.15
UUUAAGCAAUAUUACGAGCA	-1.38 ± 0.21	-0.686 ± 0.22
CGACAGCAAUAUUACGCCCC	-1.19 ± 0.16	0.564 ± 0.24
UCAAAGCAAUAUUACGUCCG	-0.781 ± 0.12	-0.625 ± 0.16
UCGAAGCAAUAUUACGUCCU	-0.664 ± 0.12	-0.253 ± 0.15
UAUAAGCAAUAUUACGUAAG	-2.45 ± 0.15	-1.08 ± 0.16
GUGAAGCAAUAUUACGGACG	0.234 ± 0.081	0.144 ± 0.092
GCGAAGCAAUAUUACGUAAU	-1.22 ± 0.097	-1.07 ± 0.11
AGGUAGCAAUAUUACGGGGC	-3.748 ± 0.033	-2.96 ± 0.043
GUCCAGCAAUAUUACGCUAC	-4.03 ± 0.16	-2.96 ± 0.14
ACCGAGCAAUAUUACGGACA	-1.25 ± 0.15	-0.523 ± 0.15
CGGGAGCAAUAUUACGGGCA		-1.14 ± 0.42
GCCAAGCAAUAUUACGCCUA	-0.609 ± 0.16	-0.61 ± 0.18
AGGCAGCAAUAUUACGUGGA	-4.02 ± 0.26	-2.6 ± 0.14
